Substrate in the series: Nc1ncnc2c1ncn2[C@@H]1O[C@H](COP(=O)(O)OP(=O)(O)OP(=O)(O)O)[C@@H](O)[C@H]1O
Nature of the series: purified protein. Conditions: basal ATPase, 0.4 μM protein, 10 mM HEPES-KOH pH 7.5, 100 mM KCl, 2 mM MgCl2, 0.5 mM DTT, kcat unit as printed.

B1: PfHsp70-z (Plasmodium falciparum 3D7) (protein)
chain: MSVLGIDIGNDNSVVATINKGAINVVRNDISERLTPTLVGFTEKERLIGDSALSKLKSNYKNTCRNIKNLIGKIGTDVKDDIEIHEAYGDLIPCEYNYLGYEVEYKNEKVVFSAVRVLSALLSHLIKMAEKYIGKECKEIVLSYPPTFTNCQKECLLAATKIINANVLRIISDNTAVALDYGMYRMKEFKEDNGSLLVFVNIGYANTCVCVARFFSNKCEILCDIADSNLGGRNLDNELIKYITNIFVNNYKMNPLYKNNTPELCPMGTGRLNKFLVTSTASDQQNGINNKVRIKLQEVAIKTKKVLSANNEASIHVECLYEDLDCQGSINRETFEELCSNFFLTKLKHLLDTALCISKVNIQDIHSIEVLGGSTRVPFIQNFLQQYFQKPLSKTLIADESIARGCVLSAAMVSKHYKVKEYECVEKVTHPINVEWHNINDASKSNVEKLYTRDSLKKKVKKIVIPEKGHIKLTAYYENTPDLPSNCIKELGSCIVKINEKNDKIVESHVMTTFSNYDTFTFLGAQTVTKSVIKSKDEKKKADDKTEDKGEKKDAKDQEQNDDKDQTNDNNMNEKDTNDKKEKNNETNSPNKTELKKGEEGKVQTCYTTIPIETLLAQGSYSSKDIFNFSEQEINMQHSDILEGERLKHLNELETIIYESRSRLNGIYKNFVMDDERDRILLSLDDYENWLYDNIEENKNMFIKKKEEIRDLIKNIVQKFDVYNSKQQNLGNIINHLNNIITQCSNKPSDESQNIINRTTKFLNNINSLQEQEKNKPLYEPPVYTLNDIEAEFNEVTQLAQKFFSKLEVEELAKQKAKQEKEKEKEKEKEKEKEKEKNEETNLDANEEQNNEAKNNEEKENSTKNENSANPEE
B1: the Km is on record as 283 (+/-3) μM and the Vmax worked out at 0.0198 µmol/min/mg.

In general, Vmax refers to the top rate of the reaction or transport when substrate is in excess.

The values are drawn from publication PMC4471362.
